Paper PMC1282572, “Avidin related protein 2 shows unique structural and functional features among the avidin protein family” (BMC Biotechnology, 2005)
Numbering of substitutions follows the chain as printed. Names and notes keep the numbering of the source.

B1: Avidin related protein 2 (AVR2), produced in insect cells (natural protein, chicken, UniProt P56732 25-150, looked up)
chain: ARKCSLTGEWDNDLGSIMTIGAVNDNGEFDGTYITAVADNPGNITLSPLLGIQHKRASQPTFGFTVHWNFSESTSVFVGQCFVDRSGKEVLKTKWLQRLAVDDISDDWIATRVGNNDFTRQHTVEE
modifications: glycosylated (two potential glycosylation sites; both utilized to some extent)
notes: avidin related protein 2 (AVR2), chicken; The crystal structure PDB 1WBI is of the E. coli form AVR2-b
B2: AVR2(I109K) (natural protein, chicken, UniProt P56732 25-150, looked up)
chain: B1 chain with I109K
notes: avidin related protein 2 (AVR2), chicken, with I109K
B3: AVR4 (carries C122S), produced in insect cells (natural protein, chicken, UniProt P56734 25-150, looked up)
chain: ARKCSLTGKWTNNLGSIMTIRAVNSRGEFTGTYLTAVADNPGNITLSPLLGIQHKRASQPTFGFTVHWNFSESTTVFTGQCFIDRNGKEVLKTMWLLRSSVNDISYDWKATRVGYNNFTRLSTVEE
notes: avidin related protein 4 (identical to AVR5), chicken, with C122S; also called AVR5 (AVR4 is identical to AVR5)
B4: AVR4(K109I) (also carries C122S), produced in insect cells (natural protein, chicken, UniProt P56734 25-150, looked up)
chain: B3 chain with K109I
notes: avidin related protein 4 (identical to AVR5), chicken, with K109I and C122S; An E. coli form, AVR4(K109I)-b, was also made
B5: AVR6(C58S), produced in E. coli (natural protein, chicken)
chain: QTVARKCSLTGEWDNNLGSIMTIGAVNDNGEFNGTYITAVADNPGNIKLSPLLGIQHKRASQPTFGFTVHWNFSESTSVFVGQCFVDRSGKEVLKTKWLQRLAVDDISDDWKATRVGYNNFTRQRTVEE
notes: checked by ESI-MS on AVR2-b only; avidin related protein 6 (AVR6), chicken, with C58S; also called AVR6-b
B6: AVR2-b (AVR2 produced in E. coli) (natural protein, chicken)
chain: B5 chain with N16D, N33D, K48T, K112I, Y118N, N120D, R125H
notes: three additional residues left at the N-terminus after cleavage of the bacterial OmpA signal peptide; avidin related protein 2 (AVR2), chicken; expected Mr of the product 14307.8 Da; Not glycosylated (bacterial expression); Crystallised in complex with D-biotin

Biological target: the molecule itself
Experiment: SEC; FPLC gel filtration, Superdex HR 10/30 column, 50 mM NaCO3 (pH 11.0), 150 mM NaCl; calibrated with IgG, BSA and ovalbumin; oligomeric state (tetramer)

Stoichiometry N, 4:
B1
B2
B3
B4
B5
B6
